Laboratory results reported in patent publication US20170226172A1.

Target: FGFR1c/alpha-klotho receptor complex, human, pre-formed (SPR analyte) (human) (UniProt P11362)
Assay: SPR competition: FGF23 on the chip surface, FGFR1c-alphaKlotho complex in solution mixed with the competitor; Ki listed at the upper right of the sheet

Row | Binder | Ki [nM]
1 | Wild Type Human FGF23 c-tail 180-251 (72 amino acid peptide) (peptide) peptide: SAEDDSERDPLNVLKPRARMTPAPASCSQELPSAEDNSPMASDPLGVVRGGRVNTHAGGTGPEGCRPFAKFI | 31
2 | N-terminal FGF23 c-tail Fc fusion (Fc fusion, not shown: a dimerising Fc or GST; small tags and cut ends) SAEDDSERDPLNVLKPRARMTPAPASCSQELPSAEDNSPMASDPLGVVRGGRVNTHAGGTGPEGCRPFAKFI | 46
